This is an account of results in PMC4361902 (Nature, 2014).

The data set “cryo-EM structure” deals with the molecule itself. Kind of data set: cryo-EM structure.
The data set “crystal structure” deals with the molecule itself. As to the kind of experiment: crystal structure.

B1: AcrB as it stands in the efflux pump assembly (AcrB moiety of the AcrA-AcrB fusion) (domain or fragment, E. coli, UniProt P31224 1-1047, looked up)
chain: MPNFFIDRPIFAWVIAIIIMLAGGLAILKLPVAQYPTIAPPAVTISASYPGADAKTVQDTVTQVIEQNMNGIDNLMYMSSNSDSTGTVQITLTFESGTDADIAQVQVQNKLQLAMPLLPQEVQQQGVSVEKSSSSFLMVVGVINTDGTMTQEDISDYVAANMKDAISRTSGVGDVQLFGSQYAMRIWMNPNELNKFQLTPVDVITAIKAQNAQVAAGQLGGTPPVKGQQLNASIIAQTRLTSTEEFGKILLKVNQDGSRVLLRDVAKIELGGENYDIIAEFNGQPASGLGIKLATGANALDTAAAIRAELAKMEPFFPSGLKIVYPYDTTPFVKISIHEVVKTLVEAIILVFLVMYLFLQNFRATLIPTIAVPVVLLGTFAVLAAFGFSINTLTMFGMVLAIGLLVDDAIVVVENVERVMAEEGLPPKEATRKSMGQIQGALVGIAMVLSAVFVPMAFFGGSTGAIYRQFSITIVSAMALSVLVALILTPALCATMLKPIAKGDHGEGKKGFFGWFNRMFEKSTHHYTDSVGGILRSTGRYLVLYLIIVVGMAYLFVRLPSSFLPDEDQGVFMTMVQLPAGATQERTQKVLNEVTHYYLTKEKNNVESVFAVNGFGFAGRGQNTGIAFVSLKDWADRPGEENKVEAITMRATRAFSQIKDAMVFAFNLPAIVELGTATGFDFELIDQAGLGHEKLTQARNQLLAEAAKHPDMLTSVRPNGLEDTPQFKIDIDQEKAQALGVSINDINTTLGAAWGGSYVNDFIDRGRVKKVYVMSEAKYRMLPDDIGDWYVRAADGQMVPFSAFSSSRWEYGSPRLERYNGLPSMEILGQAAPGKSTGEAMELMEQLASKLPTGVGYDWTGMSYQERLSGNQAPSLYAISLIVVFLCLAALYESWSIPFSVMLVVPLGVIGALLAATFRGLTNDVYFQVGLLTTIGLSAKNAILIVEFAKDLMDKEGKGLIEATLDAVRMRLRPILMTSLAFILGVMPLVISTGAGSGAQNAVGTGVMGGMVTATVLAIFFVPVFFVVVRRRFSRKNEDIEHSHTVD
In the case of B1, the “stoichiometry N” value in “cryo-EM structure” turned out to be 3.

B2: AcrB with the C-terminal histidines removed (pET21a-acrBΔHis) (natural protein, E. coli, UniProt P31224 1-1047, looked up)
chain: B1 chain
Turning to B2, in “crystal structure”, the “stoichiometry N” value amounted to 3.

B3: TolC (tolC1392, coexpressed from pRSFduet-1-acrA-polyGS-acrZHis5-tolC1392) (natural protein)
chain: ENLMQVYQQARLSNPELRKSAADRDAAFEKINEARSPLLPQLGLGADYTYSNGYRDANGINSNATSASLQLTQSIFDMSKWRALTLQEKAAGIQDVTYQTDQQTLILNTATAYFNVLNAIDVLSYTQAQKEAIYRQLDQTTQRFNVGLVAITDVQNARAQYDTVLANEVTARNNLDNAVEQLRQITGNYYPELAALNVENFKTDKPQPVNALLKEAEKRNLSLLQARLSQDLAREQIRQAQDGHLPTLDLTASTGISDTSYSGSKTRGAAGTQYDDSNMGQNKVGLSFSLPIYQGGMVNSQVKQAQYNFVGASEQLESAHRSVVQTVRSSFNNINASISSINAYKQAVVSAQSSLDAMEAGYSVGTRTIVDVLDATTTLYNAKQELANARYNYLINQLNIKSALGTLNEQDLLALNNALSKPVSTNPENVAPQTPEQNAIAD
On to B3, for which the “stoichiometry N” value in “cryo-EM structure” turned out to be 3.

Broadly, the stoichiometry N is a count of units in the complex or per binding partner.
